Source: patent US20260167699A1 (Chugai, published 2026)
Where a chain is given by its changes, count along the chain named.

B1: GpH7-A5/GpH7-B3 variant Q295_16H/GpL16-k0 (antibody, human IgG1, kappa)
heavy 1: not shown
heavy 2: not shown
light: DIVMTQSPLSLPVTPGEPASISCQASESLVHSNRNTYLHWYLQKPGQSPQLLIYKVSNRFSGVPDRFSGSGSGTDFTLKISRVEAEDVGVYYCSQNTHVPPTFGQGTKVEIERTVAAPSVFIFPPSDEQLKSGTASVVCLLNNFYPREAKVQWKVDNALQSGNSQESVTEQDSKDSTYSLSSTLTLSKADYEKHKVYACEVTHQGLSSPVTKSFNRGEC
notes: heterodimerized IgG1, one H chain mutated; also called He Ab; copies: 1 + 1 + 2
B2: GpH7-A5/GpH7-B3 variant S298_03V/GpL16-k0 (antibody, human IgG1, kappa)
heavy 1: not shown
heavy 2: not shown
light: B1 light
notes: as for B1
B3: GpH7-A5/GpH7-B3 variant Q295_18N/GpL16-k0 (antibody, human IgG1, kappa)
heavy 1: not shown
heavy 2: not shown
light: B1 light
notes: as for B1
B4: GpH7-A5/GpH7-B3 variant S298_04F/GpL16-k0 (antibody, human IgG1, kappa)
heavy 1: not shown
heavy 2: not shown
light: B1 light
notes: as for B1
B5: GpH7-A5/GpH7-B3 variant S298_15Y/GpL16-k0 (antibody, human IgG1, kappa)
heavy 1: not shown
heavy 2: not shown
light: B1 light
notes: as for B1
B6: GpH7-A5/GpH7-B3 variant S298_06M/GpL16-k0 (antibody, human IgG1, kappa)
heavy 1: not shown
heavy 2: not shown
light: B1 light
notes: as for B1
B7: GpH7-A5/GpH7-B3 variant S298_07I/GpL16-k0 (antibody, human IgG1, kappa)
heavy 1: not shown
heavy 2: not shown
light: B1 light
notes: as for B1
B8: GpH7-A5/GpH7-B3 variant S298_14T/GpL16-k0 (antibody, human IgG1, kappa)
heavy 1: not shown
heavy 2: not shown
light: B1 light
notes: as for B1
B9: GpH7-A5/GpH7-B3 variant S298_02A/GpL16-k0 (antibody, human IgG1, kappa)
heavy 1: not shown
heavy 2: not shown
light: B1 light
notes: as for B1
B10: GpH7-A5/GpH7-B3 variant S298_11K/GpL16-k0 (antibody, human IgG1, kappa)
heavy 1: not shown
heavy 2: not shown
light: B1 light
notes: as for B1
B11: GpH7-A5/GpH7-B3 variant S298_08L/GpL16-k0 (antibody, human IgG1, kappa)
heavy 1: not shown
heavy 2: not shown
light: B1 light
notes: as for B1
B12: GpH7-A5/GpH7-B3 variant S298_12R/GpL16-k0 (antibody, human IgG1, kappa)
heavy 1: not shown
heavy 2: not shown
light: B1 light
notes: as for B1
B13: GpH7-A5/GpH7-B3 variant S298_01G/GpL16-k0 (antibody, human IgG1, kappa)
heavy 1: not shown
heavy 2: not shown
light: B1 light
notes: as for B1
B14: GpH7-A5/GpH7-B3 variant S298_16H/GpL16-k0 (antibody, human IgG1, kappa)
heavy 1: not shown
heavy 2: not shown
light: B1 light
notes: as for B1

Target: T1, FcγRIa extracellular domain, C-terminal His tag (human, UniProt P12314 16-292)
T1 construct: extracellular domain; also called 1a
T1 sequence (P12314 other isoform, or with tags, fused parts or gaps): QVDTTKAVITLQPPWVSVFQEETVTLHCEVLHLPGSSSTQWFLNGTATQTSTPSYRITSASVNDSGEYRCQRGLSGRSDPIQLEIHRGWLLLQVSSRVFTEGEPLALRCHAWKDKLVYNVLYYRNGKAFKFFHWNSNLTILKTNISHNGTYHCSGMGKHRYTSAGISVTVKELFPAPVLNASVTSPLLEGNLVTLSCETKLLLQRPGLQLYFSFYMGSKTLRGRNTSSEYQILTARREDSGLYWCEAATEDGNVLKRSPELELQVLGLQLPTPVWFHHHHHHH
Assay: SPR; He Ab vs HeCon Ab (GpH7-A5/GpH7-B3/GpL16-k0)=100;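 also: surface plasmon resonance at 25 °C with the test antibody captured on a sensor chip via antigenic peptide, protein L or protein A/G and FcγR flowed over as analyte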

Row | Binder | He/Con 1a
1 | B1 | 101%
2 | B2 | 106%
3 | B3 | 101%
4 | B4 | 106%
5 | B5 | 104%
6 | B6 | 111%
7 | B7 | 104%
8 | B8 | 104%
9 | B9 | 103%
10 | B10 | 106%
11 | B11 | 104%
12 | B12 | 106%
13 | B13 | 100%
14 | B14 | 105%

Target: T2, FcγRIIa(R) extracellular domain, C-terminal His tag (human, UniProt P12318 34-217)
T2 construct: extracellular domain; also called 2aR
T2 sequence: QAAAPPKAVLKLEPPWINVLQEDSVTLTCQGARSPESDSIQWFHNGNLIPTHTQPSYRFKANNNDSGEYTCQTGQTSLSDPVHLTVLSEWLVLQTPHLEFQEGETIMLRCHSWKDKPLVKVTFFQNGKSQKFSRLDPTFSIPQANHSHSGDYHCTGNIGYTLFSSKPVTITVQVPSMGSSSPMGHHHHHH
Assay: as above

Row | Binder | He/Con 2aR
15 | B1 | 80.5%
16 | B2 | 82.5%
17 | B3 | 81.7%
18 | B4 | 80.4%
19 | B5 | 75.7%
20 | B6 | 104%
21 | B7 | 86.2%
22 | B8 | 94.2%
23 | B9 | 87.2%
24 | B10 | 91%
25 | B11 | 100%
26 | B12 | 81.6%
27 | B13 | 94.5%
28 | B14 | 84.7%

Target: T3, FcγRIIa(H) extracellular domain, C-terminal His tag (human, UniProt P12318 34-217)
T3 construct: extracellular domain; also called 2aH
T3 sequence: T2 sequence with R134H
Assay: as above

Row | Binder | He/Con 2aH
29 | B1 | 90.1%
30 | B2 | 83.2%
31 | B3 | 87.8%
32 | B4 | 75.5%
33 | B5 | 71.2%
34 | B6 | 95.8%
35 | B7 | 84.9%
36 | B8 | 96.2%
37 | B9 | 74.3%
38 | B10 | 63.9%
39 | B11 | 83%
40 | B12 | 67.4%
41 | B13 | 71.4%
42 | B14 | 80.2%

Target: T4, FcγRIIb extracellular domain, C-terminal His tag (human, UniProt P31994 43-217)
T4 construct: extracellular domain; also called 2b
T4 sequence: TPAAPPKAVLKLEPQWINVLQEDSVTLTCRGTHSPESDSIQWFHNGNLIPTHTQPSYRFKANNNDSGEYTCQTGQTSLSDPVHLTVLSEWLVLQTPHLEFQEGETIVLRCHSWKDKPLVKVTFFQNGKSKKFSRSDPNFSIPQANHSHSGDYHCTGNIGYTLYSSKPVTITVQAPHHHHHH
Assay: as above

Row | Binder | He/Con 2b
43 | B1 | 70.3%
44 | B2 | 65.4%
45 | B3 | 72.8%
46 | B4 | 66.3%
47 | B5 | 62.2%
48 | B6 | 103%
49 | B7 | 71.5%
50 | B8 | 79%
51 | B9 | 74.4%
52 | B10 | 62.2%
53 | B11 | 110%
54 | B12 | 58.6%
55 | B13 | 81.2%
56 | B14 | 64.4%

Target: T5, FcγRIIIa extracellular domain, C-terminal His tag (human, UniProt P08637 17-208)
T5 construct: extracellular domain; also called 3a
T5 sequence (P08637 other isoform, or with tags, fused parts or gaps): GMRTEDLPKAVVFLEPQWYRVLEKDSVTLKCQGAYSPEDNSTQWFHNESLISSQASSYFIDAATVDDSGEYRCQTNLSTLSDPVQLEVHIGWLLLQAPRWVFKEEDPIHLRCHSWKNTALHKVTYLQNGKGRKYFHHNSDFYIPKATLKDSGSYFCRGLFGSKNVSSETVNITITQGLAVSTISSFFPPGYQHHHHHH
Assay: as above

Row | Binder | He/Con 3a
57 | B1 | 80.2%
58 | B2 | 103%
59 | B3 | 85.7%
60 | B4 | 77.6%
61 | B5 | 80.6%
62 | B6 | 87.2%
63 | B7 | 90.7%
64 | B8 | 106%
65 | B9 | 151%
66 | B10 | 50%
67 | B11 | 69.2%
68 | B12 | 52.1%
69 | B13 | 74.9%
70 | B14 | 71.9%
